# Data: the nanobody polyreactivity screen of Harvey et al. (2022)
# Experiment: yeast display, Sf9 membrane polyspecificity reagent, FACS + sequencing; frameworks hold sequencing errors
# Outline: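 Using colony PCR, genes from sorted yeast display clones were amplified, then sequenced on MiSeq at 2 × 250 and filtered by CDR length. The clones had been stained with 10% biotinylated, detergent-solubilized Sf9 membrane reagent for 1 hour at 4 °C and sorted by FACS into low and high (top ~1%) gates on anti-HA and streptavidin fluorescence. Polyreactivity labels come from the gate of origin.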
row,Sequence,polyreactivity (PSR sort gate)
1,QVQLVESGGGLVQAGGSLRLSCAASGRTFLWNAMGWSRPAPGKERELVAAITSGGRTTYADSVKGRFTISRDNAKNTVYLQMNSLKPEDTAVYYCAAVSANQDFDYWGQGTQVTVSS,high polyreactivity
2,QVQLVESGGGLVQAGGSLRLSCAASGRTFLWNAMGWYRQAPGKERELVAAIRGGTITYYADSVKGRFTISRDNAKNTVYLQMNSLKPEDTAVYYCAATSARGQYYWYCFNGYPYSEFGYWGQGTQVTVSS,low polyreactivity
3,QVQLVESGGGLVQAGGSLRLSCAASGRTFLWNAMGWYRQAPGKERELVAAISISGGNTNYADSVKGRFTISRDNAKNTVYLQMNSLKPEDTAVYYCNADPRAEPGDWSYEMDYWGQGTQVTVSS,low polyreactivity
4,QVQLVESGGGLVQAGGSLRLSCAASGRTFLWYAKGWYRQAPGKEMELVATITSGDSTIYADSVKGRFTISRDNEKNTVYLQMNSLKPVDTAVYYCAAGYYYYLRDHDYWGQGTQVTVSS,low polyreactivity
5,QVQLVESGGGLVQAGGSLRLSCAASGRTFLYNAMGWYRQAPGKERELVAAIRWSGGTTYYADSVKGRFTISRDNAKNTVYLQMNSLKPEDTAVYYCAARWGPYYGGVRYGYWGQGTQVTVSS,high polyreactivity
6,QVQLVESGGGLVQAGGSLRLSCAASGRTFLYVMGWYRQAPGKERELVAAISRGGSTSYADSVKGRFTISRDNAKNTVYLQMNSLKPEDTAVYYCAATNYWRDGYWGQGTQVTVSS,high polyreactivity
7,QVQLVESGGGLVQAGGSLRLSCAASGRTFMRYAMGWYRQAPGKERELVAAISRGGGRTYYADSVKGRFTISRDNAKNTVYLQMNSLKPEDTAVYYCAADLSPEYDYWGQGTQVTVSS,high polyreactivity
8,QVQLVESGGGLVQAGGSLRLSCAASGRTFNAYAMGWYRQAPGKERELVAAITWSGGSTYYAHSVKGRFTISRDNAKNTVYLQMNSLKPEDTAVYYCAARSFTNIRSVSSPYRYYYWGQGTQVTVSS,high polyreactivity
9,QVQLVESGGGLVQAGGSLRLSCAASGRTFNCYAMGWYRQAPGKERELVAAISNGGNTNYADSVKGRFTISRDNAKNTVYLQMNSLKPEDTAVYYCAARATPAFSRRGYYWGQGTQVTVSS,high polyreactivity
10,QVQLVESGGGLVQAGGSLRLSCAASGRTFNDYAMGWYRQATGKERELVAGITWRGGSTYYADSVKGRFTISRDNAKNTVYLQMNSLKPEDTAVYYCNAVPRRGYSRRDYWGQGTQVTVSS,high polyreactivity
11,QVQLVESGGGLVQAGGSLRLSCAASGRTFNIYAMGWYRQEPGKERELVAAITNNGGRTYYADSVKGRFTISRDNAKNTVYLQMNSLKPEDTAVYYCAAASPWRYGFEYWGQGTQVTVSS,high polyreactivity
12,QVQLVESGGGLVQAGGSLRLSCAASGRTFNKYAMGWYRQAPGKERELVAAISTRGGSTYYADSVKGRFTISRDNAKNNVYLQMNSLKPEDTAVYYCAARLTTVGQGFDYWGQGTKVTVSS,high polyreactivity
13,QVQLVESGGGLVQAGGSLRLSCAASGRTFNPYVMGWYRQAPGKERELVARIRGSGTSTYYADSVKGRFTISRDNAKNTVYLQMNSLKPEDTAVYYCAAAQSKYSFYWGDYYYWGQGTQVTVSS,high polyreactivity
14,QVQLVESGGGLVQAGGSLRLSCAASGRTFNQYAMGWYRQAPGKVRELVAAISRPTGRTYYADSVKGRFTISRDNAKNTVYLQMNSLKPEDTAVYYCAKADNRSPVDNGFDYWGQVTQVTVSS,high polyreactivity
15,QVQLVESGGGLVQAGGSLRLSCAASGRTFNRYAMGWYRQAPGKERELVAVITSDGRTNYADSVKGRFTISRDNAKNTVYLQMNSLKPEDSAVYYCNKRSALSFVYDFDYWGQGTQVTVSS,low polyreactivity
16,QVQLVESGGGLVQAGGSLRLSCAASGRTFNSYAMGWYRQAPGKERELVAGITGTGGSTYYADSVKGRFTISRDNAKNTVYLQMNSLKPEDTAVYYCNALRRCQRYWDPYGYDYWGQGTQVTVSS,high polyreactivity
17,QVQLVESGGGLVQAGGSLRLSCAASGRTFNTYAMGWYRQAPGKEREFVAAIRYSGDRTNYADSVKGRFTISRDNAKNTVYLQMNSLKPEDTAVYYCAAVNYFPWWSFEYWGQGTQVTVSS,low polyreactivity
18,QVQLVESGGGLVQAGGSLRLSCAASGRTFNTYAMGWYRQAPGKERELVAAISSGRRTYYADSVKGRFTISRDNAKNTVYLQMNSLKPEDTAVYYCAKRGRYSYKYDYWGQGTQVTVSS,high polyreactivity
19,QVQLVESGGGLVQAGGSLRLSCAASGRTFNTYAMGWYRQAPGKERELVADISVSGGRTYYADSVKGRFTISRDNAKNTVYLQMNSLKPEDNAVYYCAKRIRYNWTFDYWGQGTQVTVSS,low polyreactivity
20,QVQLVESGGGLVQAGGSLRLSCAASGRTFNVNAMGWYRQAPGKERELVASITWSDGSTYYADSVKGRFTISRDNAKNTVYLQMNSLKPEDTAVYYCNVTYGLESSYPRDDYWGQGTQVTVSS,low polyreactivity
21,QVQLVESGGGLVQAGGSLRLSCAASGRTFNVNVMGWYRQAPGKERELVAAIRYNGGSTYADSVKGRFTISRDNAKNTVYLQMNSLKPEDTAVYYCNADTFFPFEHGMDYWGQGTQVTVSS,low polyreactivity
22,QVQLVESGGGLVQAGGSLRLSCAASGRTFNVYAMGWYRQAPGKERELVAAISIGGRTNYADSVKGRFTISRDNAKNTVYLQMNSLKPEDTAVYYCAADTRRKYGGMYYWGQGTQVTVSS,high polyreactivity

row,Sequence,polyreactivity (PSR sort gate)
1,QVQLVESGGGLVQAGGSLRLSCAASGRTFNWYAMGWYRQAPGKEWELVAAISGGGGSTYYADSVKGRFTISRDNAKNTVYLQMNSLKPEDTAVYYCAADVEGWTVESDVYRVGYDYWGQGTQVTVSS,low polyreactivity
2,QVQLVESGGGLVQAGGSLRLSCAASGRTFNYNSMGWYRQAPGKERELVAAISATGGTTYYADSVKGRFTISRDNAKNTVYLQMNSLKPEDTAVYYCAADTPPYYAYWDVSFEYYYWGQGTQVTVSS,low polyreactivity
3,QVQLVESGGGLVQAGGSLRLSCAASGRTFNYYAMGWYRPAPGKERELVAAISGSGGRTYYADSVKGRFTISRDNAKNNVYLQMNSLKPVDTAVYYCNADVGKYPYAHTYWARRYYYWGQGTQVTVSS,high polyreactivity
4,QVQLVESGGGLVQAGGSLRLSCAASGRTFPAYAMGWYRQAPGKERELVAAISRGGSTYYADSVKGRFTISRDNAKNTVYLQMNSLKPEDTAVYYCAARYSYYRQGDSWYNYNYWGQGTQVTVSS,high polyreactivity
5,QVQLVESGGGLVQAGGSLRLSCAASGRTFPAYAMGWYRQAPGKERELVAAISSGTSTYADSVKGRFTISRDNAKNTVYLQMNSLKPEDTAVYYCAAGYDRVHSVAGYDYWGQGTQVTVSS,low polyreactivity
6,QVQLVESGGGLVQAGGSLRLSCAASGRTFPAYAMGWYRQAPGKERELVAAISYSGGRTRYADSVKGRFTISRDNAKNTVYLQMNSLKPEDTAVYYCNRVIPTQSLRDYYWGQGTQVTVSS,high polyreactivity
7,QVQLVESGGGLVQAGGSLRLSCAASGRTFPAYAMGWYRQAPGKERELVAGISKRGGSTYYADSVKGRFTISRDNAKNTVYFQMNSLKPEDTAVYYCNAEGHLFRYDSWGQGTQVTVSS,high polyreactivity
8,QVQLVESGGGLVQAGGSLRLSCAASGRTFPFNTMGWYRQAPGKERELVARISSGGSTYYADSVKGRFRISRDNAKNTVYLQMNSLKPEDTAVYYCATRYRYYSRLYDYWGQGTQVTVSS,high polyreactivity
9,QVQLVESGGGLVQAGGSLRLSCAASGRTFPGNAMGWYRQAPGKERELVAAIRWRGGSTYYADSVKGRFTISRDNAKNTVYLQMNSLKPEDTAVYYCATRALGHFDWGQGTQVTVSS,low polyreactivity
10,QVQLVESGGGLVQAGGSLRLSCAASGRTFPGYAMGWYRQAPGKERELVAGISYRGGSTYYADSVKGRITISRDIAKNSVYLQMISLKPEDTAVYFCARDYSRHKGDLWGQGTQVTVSS,low polyreactivity
11,QVQLVESGGGLVQAGGSLRLSCAASGRTFPIYAMGWYRQAPGKERELVAAITSYRRGTTYYADSVKGRFTISRDNAKNTVYLQMNSLKPEDTAVYYCTARTLRGGEYKYWGQGTPVTVSS,high polyreactivity
12,QVQLVESGGGLVQAGGSLRLSCAASGRTFPLYAMGWYRQAPGKERELVASITTDSSTYYADSVKGLFTISRDNAKYTVYLQMNSLKPEDTAVYYCAATTIPYPYTEFDYWGQGTQVTVSS,low polyreactivity
13,QVQLVESGGGLVQAGGSLRLSCAASGRTFPPYAMGWYRQAPGKERELVAAISRRAGTTYYADSVKGRFTISRDNAKNTVYLQMNSLKPEDTAVYYCAASDHYRWYVHRWEDPFYYWGQGTQVTVSS,low polyreactivity
14,QVQLVESGGGLVQAGGSLRLSCAASGRTFPRNAMGWYRQAPGKERELVAAITTSGGRTYYADSVKGRFTISRDNAKNTVYLQMNSLKPEDTAVYYCAVRYDTLAWYAFYYWGQGTQVTVSS,low polyreactivity
15,QVQLVESGGGLVQAGGSLRLSCAASGRTFPSYAKGLYRQAPGKERELVASISRGASTNYADSVMGRFTISRDNAKNCVFLQMNSLKPEDTAVYFWAANDSWVYTYYYWGQGTQVTVSS,high polyreactivity
16,QVQLVESGGGLVQAGGSLRLSCAASGRTFPSYAMGWYRQAPGKERELVAAISRSGGSTYYADSVKGRFTISRDNAKNTVYLQMNSLKPEDTAVYYCAAVSRVHFSYIYDYWGQGTQVTVSS,high polyreactivity
17,QVQLVESGGGLVQAGGSLRLSCAASGRTFPTNAMGWYIQAPGKERELVAVISRNSGRTYYADSVKGRFTISRDNAMNTVYFQMNSLKPEDTAVYYCAADKYTRAYYYWGQGTQVTVSS,high polyreactivity
18,QVQLVESGGGLVQAGGSLRLSCAASGRTFPTNAMGWYRQAPGKERELVARISTRGGSTYYADSVKGRFTISRDNAKNTVYLQMNSLKPEDTAVYYCARRYAVSNQASYYWGQGTQVTVSS,high polyreactivity
19,QVQLVESGGGLVQAGGSLRLSCAASGRTFPTYAMGWYRQAPGKERELVARITWNGGSTYYADSVKGRFTISRDNAKNTVYLQMNSLKPEDTAVYYCNAAQRIRYYPRYYYGYDYWGQGTQVTVSS,high polyreactivity
20,QVQLVESGGGLVQAGGSLRLSCAASGRTFPVNAMGWYRQAPGKERELVASITYSGGSTYYADSVKGRFTISRDNAKNTVYLQMNSLKPEDTAVYYCAADWYRSPYDYWGQGTQVTVSS,low polyreactivity
21,QVQLVESGGGLVQAGGSLRLSCAASGRTFPVNVMGWYRQAPGKERELVAAITWSGDSTYYADSVKGRFTISRDNAKNTVYLQMNSVKPEDTAVYYCATDYSGLRYDYWGQGTQVTVSS,low polyreactivity
